{"source": "patent US7422862B2", "about": "“Methods for identifying modulators of apoptosis” (The Burnham Institute, priority 2001, dated 2008)", "key": {"[1]": {"molecular_target": "T1, Bax (Homo sapiens, UniProt Q07812)", "T1 sequence (Q07812 whole entry, species assumed, the tested form may be a part)": "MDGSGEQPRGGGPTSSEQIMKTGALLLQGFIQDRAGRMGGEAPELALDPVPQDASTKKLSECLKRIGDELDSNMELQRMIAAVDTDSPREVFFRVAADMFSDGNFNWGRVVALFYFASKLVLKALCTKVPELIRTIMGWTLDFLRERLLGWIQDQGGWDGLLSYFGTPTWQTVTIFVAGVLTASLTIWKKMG", "test": "Suppression of apoptosis induced by Bax over-expression (Humanin mutants)", "type": "cell-based", "design": "expressed in transfected cells; host or cells: HEK293T", "conditions": "GFP-fusion polypeptides, 3:1 ratio of HN:Bax plasmid DNA", "method": "(§1) Apoptosis assays were performed as follows. Both floating and adherent cells (after trypsinization) were collected 48 hr after transfection, fixed, and stained using 4′,6-diamidine-2′-phenylindole dihydrochloride (DAPI) for assessing apoptosis based on nuclear fragmentation and chromatin condensation (Fields and Song, supra (1989)).\n(§2) In order to explore whether a correlation exists between Humanin binding to Bax and Humanin-mediated suppression of apoptosis, Bax was co-expressed with various GFP-fusion polypeptides encoding wild-type, full-length Humanin or various truncation and site-specific mutants of Humanin (Table 1). Expression of all GFP-fusion polypeptides was confirmed by immunoblotting, and ability to bind Bax was determined by co-immunoprecipitation assay. Each Humanin mutant was scored for ability to suppress apoptosis induced by Bax over-expression by >50% using a 3:1 ratio of HN:Bax plasmid DNA. […] Based on these studies, an active region of the 24 amino-acid Humanin peptide, mapped to residues 7-17.\nCell culture and transfections were performed as follows. CSM14.1, HCT116, Cos-7, and SF268 cells were cultured in DMEM high glucose media (Irvine Scientific, Santa Ana, Calif.) containing 10% fetal bovine serum (FBS). PC-3 cells were cultured with RPMI 1640 media containing 10% FBS. Transfection of cells was performed using SuperFect (Qiagen, Chatsworth, Calif.) or LipofectaminePLUS reagent ([…])."}, "[2]": {"molecular_target": "T1, Bax", "test": "Co-immunoprecipitation of GFP-Humanin fusion polypeptides with Bax in transfected cells", "type": "binding", "design": "expressed in transfected cells; host or cells: HEK293T; key to Bax binding: +: ability to bind Bax was determined by co-immunoprecipitation assay; −: lacked Bax-binding activity", "conditions": "for Bax binding: GFP-fusion polypeptides, co-immunoprecipitation", "source_text": "Humanin (HN) cDNA was sub-cloned into a Green Fluorescence Protein (GFP) expression vector GFP-Cl at the Xhol/Hind III sites, producing a GFP-HN fusion polypeptide. GFP and GFP-HN were transfected into 293T cells with pcDNA3-HA-Bax. Cell lysates from these cells were immunoprecipitated with anti-GFP antibody and subsequently blotted with anti-HA antibody. The lysates were also blotted with ani-GFP antibody to confirm polypeptide expression. […] The data shown were obtained using the cytosolic form of Humanin; however, both cytosolic and mitochondrial forms of Humanin were tested and the results were the same.\nCo-immunoprecipitation assays were performed using Humanin polypeptides expressed as fusion polypeptides with the Green Fluorescent Protein (GFP) in human cells. Wild-type Humanin fused to GFP is referred to as GFP-HN and a mutant form of Humanin, where the cysteine at position 8 is replaced with proline, fused to GFP is referred to as GFP-C8P. […] Immunoblot analysis of lysates of the transfected cells confirmed production of all proteins. In addition, GFP-HN also coimmunoprecipitated endogenous Bax from cell lines, which contain relatively high levels of the Bax protein.\nImmunoblotting and immunoprecipitations were performed as follows. Immunoblotting was performed as described previously (Fields and Song, Nature 340:245-246 (1989)). For co-immunoprecipitations, cells were cultured in 50 uM […] Valine Alanine Asparate fluoromethyl-ketone (zVAD-fmk) to prevent apoptosis. Cells were suspended in lysis buffer (50 mM Tris-HCl, pH7.4; 150 mM NaCl; 20 mM EDTA; 50 mM NaF; 0.5% NP-40; 0.1 mM Na3VO4; 20 ug/ml Leupeptin; 20 ug/ml Aprotinin; 1 mM DTT; and 1 mM PMSF). Lysates (200 ul diluted in 1 ml final volume of lysis buffer) were cleared by incubation with 15 ul of protein G-Sepharose 4B (Zymed) and then incubated with 15 ul of polyclonal antibody and 15 ul of protein G at 4° C. overnight. Beads were then washed 4 times with 1.5 mls lysis buffer before boiling in Laemmli sample buffer and performing SDS-PAGE/immunoblotting.\nas §2"}, "[3]": {"conditions": "previously reported (Hashimoto et al.); cited from earlier work"}, "[4]": {"molecular_target": "T1, Bax", "test": "Bax-induced apoptosis in transfected neuronal cells (DAPI staining)", "type": "cell-based", "design": "expressed in transfected cells", "method": "(A) HEK293T cells were transfected with pcDNA3-HA-Bax together with plasmids encoding GFP, GFP-HN(N), or GFP-HN(M). Cell lysates were immunoprecipitated with polyclonal anti-GFP antibody. Immunoprecipitates (IP) or cell lysates were analyzed by immunoblotting using anti-HA or anti-GFP antibodies, respectively. (B) CSM14.1 neuronal cells were co-transfected with pcDNA3-HA-Bax together with plasmids encoding GFP, GFP-HN(N), or GFP-HN(M). Percent apoptosis was determined 48 h later by DAPI staining (mean±SD; n=3).\n(§3) Rat neuronal cell line CSM14.1 cells were transfected with various plasmids using the Lipofectamine reagent (Invitrogen). For transfection, 10×10^5 cells were plated per well using 6 well plates. Each well received 1 μg DNA plus […] of Lipofectamine. After 24 hours of transfection, the percentage of cell death was determined using 4′-6-diamidino-2-phenylindole (DAPI) staining. […] The data shown were obtained using the cytosolic form of Humanin; however, both cytosolic and mitochondrial forms of Humanin were tested and the results were the same.\nas §1\nSince Humanin co-immunoprecipitates with Bax but not Bak, the effects of Humanin over-expression on apoptosis induced by these members of the Bcl-2 family was compared. […] Similar results were obtained regardless of whether Humanin was fused to the N- or C-terminus of GFP, with both of these GFP fusion polypeptides localizing to the cytosol of cells."}, "[5]": {"molecular_target": "T2, t-Bid (Homo sapiens, UniProt P55957)", "T2 sequence (P55957 61-195 limits assumed)": "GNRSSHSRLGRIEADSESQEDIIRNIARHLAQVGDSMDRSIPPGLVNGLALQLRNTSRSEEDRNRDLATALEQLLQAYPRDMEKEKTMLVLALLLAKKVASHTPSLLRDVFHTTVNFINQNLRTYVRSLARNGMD", "test": "Bid-induced apoptosis in CSM14.1 cells (DAPI staining)", "type": "cell-based", "design": "expressed in transfected cells; host or cells: CSM14.1 rat hippocampal neuronal cells", "conditions": "24 hours after transfection", "method": "Apoptosis was examined by DAPI staining. The data shown were obtained using the cytosolic form of Humanin; however, both cytosolic and mitochondrial forms of Humanin were tested and the results were the same.\nas §3"}, "[6]": {"test_system": "CSM14.1 cells", "test": "Apoptosis of CSM14.1 cells induced by various stimuli", "type": "cell-based, rat", "method": "(A-D) CMS14.1 neuronal cells were transfected with plasmids encoding Flag-HN peptide or Flag-control (27-amino-acid) peptide, together with GFP-encoding plasmid at 4:1 ratio. Cells were either cultured without further treatment (open bars) or subjected to various apoptotic stimuli for various times (dark bars), including (A) STS for 8 h (dark symbols=Flag-control; open symbols=Flag-HN), (B) Serum-deprivation for 72 h, (C) 10 joules/m2 Uvirradiation followed by 24 h culture, and (D) 50 ng/ml TNFa in […] for 24 h. Cells were then fixed and stained with DAPI to determine the percentage of apoptotic cells, evaluating=200 GFP-positive cells per sample (mean±SD; n=3). (inset) Lysates prepared from replicate cultures of transfected cells were normalized for total protein content and analyzed by immunoblotting using anti-Flag (top) and anti-tubulin (bottom) antibodies, confirming production of similar amounts of Flag-control and Flag-HN peptides. (E) SF268 cells were transfected with Humanin siRNA (HN-siRNA) (dark bars) or mutant siRNA containing two mismatches (mut-siRNA) as negative control (open bars). (Upper panel) After 72 hr, cell lysates were prepared and 100 ug was analyzed by immunoblotting using anti-HN and anti-tubulin (as a loading control) antibodies. (Lower panel) At 72 hr after siRNA transfection, SF268 cells were cultured with 0.1 μM STS for 8 hrs, then % apoptosis was determined (mean+std dev; n=3). (F) HN protects against Bax- but not Bak-induced apoptosis. CSM14.1 neuronal cells were co-transfected with pcDNA3-HA-Bax or pcDNA3-HA-Bak together with plasmids encoding with GFP (indicated by “-”), GFP-HN, or GFP-HN(C8P). Apoptosis (%) was measured 48 hrs later among GFP-positive cells. (G) Humanin inhibits STS-induced apoptosis in wild type HCT116 cells, but not HCT116 BAX -/- cells. HCT116 cells heterozygous or homozygous for BAX gene inactivation were transfected with plasmids encoding GFP (open bars) or GFP-HN (dark bars). After 24 h, cells were cultured without (C) or with STS (0.2 μM for wild type and 1.0 μM for Bax - /- cells) for 8 h, then % apoptosis was determined for GFP-positive cells (mean+std dev; n=3). (inset) Lysates from the cells were analyzed by immunoblotting (20 ug) using anti-Bax (top) and anti-Bid (bottom) antibodies. (H) HN prevents Bax-induced cell death in yeast. Cells were co-transformed with YEp51-Bax (encoding Bax under control of a GAL10 promoter) and plasmid control (C) or plasmids encoding Humanin or Humanin(C8P) fusion polypeptides. Cells initially grown in glucose-containing medium were streaked onto either glucose (top) or galactose (bottom) plates to suppress or induce Bax expression, respectively.\nFor these experiments, Flag-epitope tagged Humanin (Flag-HN) or Flag control polypeptides were expressed in CSM14.1 cells, an immortalized rat hippocampal neuronal cell line that has been used as a model for neuronal apoptosis studies (Kermer et al., Cell Death Differ. 9:405-413 (2002)). Apoptosis of CSM14.1 cells induced by Staurosporine (STS), UV-irradiation, and serum-deprivation was suppressed by Flag-HN (FIG. 6A-C). […] Note that at higher doses of STS (FIG. 6A), Humanin-mediated protection was overcome, indicating Humanin-insensitive mechanisms of apoptosis induction exist, even when using a mitochondria-dependent death stimuli.\nApoptosis assays were performed as follows. […]"}}, "note": "No end group written: not given here.", "data": [{"substance": "L9R: GFP-fusion of Humanin site-specific mutant L9R (MAPRGFSCRLLLTSEIDLPVKRRA; also: fused to GFP; UniProt Q8IVG9 1-24, looked up, variant L9R)", "values": [{"measurement": "Bax suppression", "setting": "[1]", "result": "− (failed to protect against Bax-induced apoptosis)"}, {"measurement": "Bax binding", "setting": "[2]", "result": "−"}, {"measurement": "anti-apoptotic activity when expressed in cells", "setting": "[3]", "result": "lack anti-apoptotic activity"}]}, {"substance": "GFP-HN(C8P): mutant Humanin, cysteine at position 8 replaced with proline, fused to GFP (MAPRGFSPLLLLTSEIDLPVKRRA; also: fused to GFP; UniProt Q8IVG9 1-24, looked up, variant C8P)", "values": [{"measurement": "Bax suppression", "setting": "[1]", "result": "− (failed to protect against Bax-induced apoptosis)"}, {"measurement": "co-immunoprecipitation with tagged Bax", "setting": "[2]; 293T/HEK293T cells, anti-GFP immunoprecipitation", "result": "did not"}, {"measurement": "Bax binding", "setting": "[2]", "result": "−"}, {"measurement": "anti-apoptotic activity when expressed in cells", "setting": "[3]", "result": "lack anti-apoptotic activity"}, {"measurement": "suppression of apoptosis induced by Bax", "setting": "[4]; CSM14.1 or PC-3 cells, transient co-transfection", "result": "did not suppress"}]}, {"substance": "Humanin (C8A): mutant form of Humanin where the cysteine at position 8 was mutated to an alanine (MAPRGFSALLLLTSEIDLPVKRRA; also: fused to GFP; UniProt Q8IVG9 1-24, looked up, variant C8A)", "values": [{"measurement": "Bax-induced apoptosis", "setting": "[4]; CSM14.1 cells, 24 hours after transfection, DAPI", "result": "not able to decrease"}, {"measurement": "Bid-induced apoptosis", "setting": "[5]", "result": "not able to decrease"}]}, {"substance": "Flag-HN: Flag-epitope tagged Humanin expressed in cells (MAPRGFSCLLLLTSEIDLPVKRRA; also: Flag epitope tag; UniProt Q8IVG9 1-24, looked up)", "values": [{"measurement": "apoptosis induced by UV-irradiation", "setting": "[6]", "result": "suppressed"}, {"measurement": "apoptosis induced by serum-deprivation", "setting": "[6]", "result": "suppressed"}, {"measurement": "apoptosis induced by TNF", "setting": "[6]; Bax-independent death stimulus", "result": "not suppressed"}, {"measurement": "apoptosis induced by Staurosporine (STS)", "setting": "[6]; STS 8 h", "result": "suppressed"}, {"measurement": "protection at higher doses of STS", "setting": "[6]; higher doses of STS", "result": "overcome"}]}]}
